# Laboratory results reported in paper PMC5441900.
# Legend:
# [1] = target: CWI (cell wall invertase) extracted from mature soybean leaves (Glycine max (endogenous in mature leaves))
# [2] = target: VI (vacuolar invertase) extracted from mature soybean leaves (Glycine max (endogenous in mature leaves))
Substance,inhibition of CWI activity (glucose released from sucrose) of a leaf cell-wall preparation after 30 min at 37 °C with recombinant GmC/VIF2; maximum at about 100 ng [1],inhibition of VI activity (glucose released from sucrose) of a leaf soluble fraction after 30 min at 37 °C with recombinant GmC/VIF2; maximum at about 100 ng [2],"inhibition of VI activity (glucose released from sucrose) of a leaf soluble fraction after 30 min at 37 °C with recombinant GmCIF1; maximum at about 50 ng, no further effect at 100 ng and 1000 ng [2]"
recombinant GmC/VIF2 (natural protein),80%,75%,–
recombinant GmCIF1 (natural protein),–,–,70%
